Target: mTOR with the cancer-associated 1455-EWED-1458 duplication, as the mTOR subunit of mTORC1_EWEDdup (human) (UniProt P42345)
Experiment: cryo-EM structure; mTORC1_EWEDdup co-expressed and purified as a complex; 1 uM with 20 uM 4EBP1 and 1 mM AMPPNP, cross-linked with 0.2 mM BS3 and 0.03% glutaraldehyde, glycerol gradient, Superose 6; 50 mM HEPES pH 7.5, 250 mM NaCl, 5 mM MgCl2, 1 mM TCEP

stoichiometry N: 2
Substance: mTOR with the cancer-associated 1455-EWED-1458 duplication, as the mTOR subunit of mTORC1_EWEDdup, P42345 1-2549

Source: article PMC11518995
